We go through five molecules from patent US20230405133A1, “PURIFIED MULTIVALENT PROTEIN-HYALURONIC ACID POLYMER CONJUGATES” (Valitor, Inc., priority 2022, published 2023).

For series [1], the target named is T1, Human VEGF 165 (human, UniProt P15692-4 27-191).
T1 construct: Loaded on the BLI probe as the ligand; also called BLI ligand Human VEGF 165 (Avi tag, R&D Systems AVI-293-050); not shown: Avi tag
The series can be described thus: BLI, VEGF 165 on probe; sample aged 3 days at 37 °C; aged 3 days at 37 C (sample 1). A general note: Biolayer interferometry detects binding as a change in optical thickness at a sensor tip.

In series [2] the target is T1, Human VEGF 165. The series can be described thus: BLI, VEGF 165 on probe, conjugate as analyte, t = 0; t = 0, fresh conjugate, not aged.
Series [3] concerns the target T1, Human VEGF 165. The series can be described thus: BLI; KD after 3 days at 37 °C against KD at t = 0; fold change of KD, 3 days at 37 C against t = 0.
Series [4] deals with T1, Human VEGF 165. The series can be described thus: BLI, VEGF 165 on probe, t = 0 (repeats Table 15).
Series [5] concerns the target T1, Human VEGF 165. The series can be described thus: BLI; KD after 3 days at 37 °C against KD at t = 0.
Series [6] concerns the target T1, Human VEGF 165. Nature of the series: BLI; KD after 5 days at 37 °C against KD at t = 0.
Series [7] has as its target T1, Human VEGF 165. The series can be described thus: BLI, VEGF 165 on probe, conjugate as analyte, t = 0.
Target sequence in this assay (P15692 other isoform, or with tags, fused parts or gaps limits assumed): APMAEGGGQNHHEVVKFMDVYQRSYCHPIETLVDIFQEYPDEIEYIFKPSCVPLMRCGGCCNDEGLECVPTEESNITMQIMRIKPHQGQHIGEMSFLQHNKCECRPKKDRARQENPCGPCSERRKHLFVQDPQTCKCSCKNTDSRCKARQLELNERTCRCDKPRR
Series [8] deals with T1, Human VEGF 165. The series can be described thus: BLI, VEGF 165 on probe; sample aged 3 days at 37 °C.
For series [9], the target named is T1, Human VEGF 165. The series can be described thus: BLI, VEGF 165 on probe; sample aged 5 days at 37 °C.
Series [10] deals with T1, Human VEGF 165. Nature of the series: BLI; KD after 4 days at 37 °C against KD at t = 0.
Target sequence in this assay (P15692 other isoform, or with tags, fused parts or gaps limits assumed): as above
For series [11], the target named is T1, Human VEGF 165. Nature of the series: BLI; KD after 11 days at 37 °C against KD at t = 0.
For series [12], the target named is T1, Human VEGF 165. The series can be described thus: BLI, VEGF 165 on probe; sample aged 4 days at 37 °C.
The target in series [13] is T1, Human VEGF 165. The series can be described thus: BLI, VEGF 165 on probe; sample aged 11 days at 37 °C.
The target of series [14] is T1, Human VEGF 165. The series can be described thus: BLI, VEGF 165 on probe, t = 0 (repeats Table 15); limit of detection.
Target sequence in this assay (P15692 other isoform, or with tags, fused parts or gaps limits assumed): as above
The target in series [15] is T1, Human VEGF 165. The series can be described thus: BLI, VEGF 165 on probe, conjugate as analyte, t = 0; value is the limit of detection.
Target sequence in this assay (P15692 other isoform, or with tags, fused parts or gaps limits assumed): as above
Series [16] is classed as physicochemical. On the procedure:
25× volumes of lysis buffer 25 mM HEPES, 20 mM imidazole, 400 mM sodium chloride, 0.5 mM EDTA, 5% glycerol, 0.01% Tween 20, pH 7.5 were added to E. coli pellets harvested from 25 mL TB culture, and sonicated 5× on ice at 40% output using a probe sonicator. Once lysed, whole cell extracts were clarified at 10K*g and 100 uL of supernatant were aliquoted and subjected to incubations at 50° C., 60° C., 70° C., and 80° C. for 15 minutes, followed by a ten-minute incubation on ice. Thermally precipitated proteins were removed at 10K*g for five minutes, and soluble extract fractions were combined directly with Laemmli sample buffer, denatured, and run on 4-20% SDS-PAGE to evaluate yield and stability.

Series [17] has as its target T1, Human VEGF 165. The series can be described thus: BLI; KD after 14 days at 37 °C against KD at t = 0.
Target sequence in this assay (P15692 other isoform, or with tags, fused parts or gaps limits assumed): as above
Series [18] addresses T1, Human VEGF 165. The series can be described thus: BLI; KD after 28 days at 37 °C against KD at t = 0.
Target sequence in this assay (P15692 other isoform, or with tags, fused parts or gaps limits assumed): as above
For series [19], the target named is T1, Human VEGF 165. The series can be described thus: BLI, VEGF 165 on probe; sample aged 28 days at 37 °C.
Series [20] has as its target T1, Human VEGF 165. The series can be described thus: BLI, VEGF 165 on probe; sample aged 14 days at 37 °C; limit of detection.

B1: Conjugate 8 (anti-VEGF E1-1 SEQ ID NO: 81 with aH linker SEQ ID NO: 21 on hyaluronic acid, intermediate 5-7) (VHH)
VHH: EVQLQASGGGFVQPGGSLRLSCAASGGGSDAGTMGWFRQAPGKEREFVSAISWAGTAWRYYADSVKGRFTISRDNSKNTVYLQMNSLRAEDTATYYCALGSYEMDHHYWGQGTQVTVSS
modifications: C-terminal Cys of the peptide linker bound by its thiol to the maleimide of the organic linker MP2H on hyaluronic acid (830 kDa)
notes: Multivalent peptide-hyaluronic acid conjugate (MVP); peptide valency 94; Method 5 intermediate; also called anti-VEGF E1-1 MVP (Method 5)
The term Kd denotes the concentration at which binding is half-saturated. Regarding B1, the equilibrium dissociation constant (Kd) came to 557 pM with Human VEGF 165 [1] and 184 pM with Human VEGF 165 [2]. Also, the “Change in KD to t = 0” value in the series with Human VEGF 165 [3] was 3 fold.

B2: Conjugate 11 (anti-VEGF E1-1 SEQ ID NO: 81 with aH linker SEQ ID NO: 21 on hyaluronic acid, intermediate 5-2) (VHH)
VHH: EVQLQASGGGFVQPGGSLRLSCAASGGGSDAGTMGWFRQAPGKEREFVSAISWAGTAWRYYADSVKGRFTISRDNSKNTVYLQMNSLRAEDTATYYCALGSYEMDHHYWGQGTQVTVSS
modifications: C-terminal Cys of the peptide linker bound by its thiol to the maleimide of the organic linker MP2H on hyaluronic acid (830 kDa)
notes: Multivalent peptide-hyaluronic acid conjugate (MVP); peptide valency 47; Method 5 intermediate
Regarding B2, the equilibrium dissociation constant (Kd) with Human VEGF 165 [4] is 1040 pM; with Human VEGF 165 [7], 1040 pM; in the series with Human VEGF 165 [8], 6760 pM; with Human VEGF 165 [9], 21900 pM. In addition, the “Change in KD to t = 0” value was found to be 7 fold with Human VEGF 165 [5] and 21 fold with Human VEGF 165 [6].

B3: Conjugate 16 (anti-VEGF VHH SEQ ID NO: 91 with aH linker SEQ ID NO: 21 on hyaluronic acid, intermediate 2-6) (VHH)
VHH: DVQLVESGGGLVQPGGSLRLSCAASGRTFSSYSMGWFRQAPGKEREFVVAISKGGYKYDAVSLEGRFTISRDNAKNTVYLQINSLRPEDTAVYYCASSRAYGSSRLRLADTYEYWGQGTLVTVSS
modifications: C-terminal Cys of the peptide linker bound by its thiol to the maleimide of the organic linker MP2H on hyaluronic acid (830 kDa)
notes: Multivalent peptide-hyaluronic acid conjugate (MVP); peptide valency 101; Method 2 intermediate; also called BI VHH anti-VEGF MVP
Regarding B3, the figures for the “Change in KD to t = 0” value with Human VEGF 165 [10] and with Human VEGF 165 [11] were 654 fold and 648 fold, respectively. The Kd in the series with Human VEGF 165 [12] is 654 pM; in the series with Human VEGF 165 [13] it was 648 pM; with Human VEGF 165 [14], less than 1 pM; with Human VEGF 165 [15], less than 1 pM.

B4: aTNFaMu_3MUT: anti-TNFα single domain antibody (mouse), aTNFaMu with three point mutations, SEQ ID NO: 72 (protein)
VHH: QVQLQESGGGLVQAGGSLRLSCAASGGTFSSIIMAWFRQAPGKEREFVGAVSWSGGTTVYADSVKGRFTISRDSARKSVYLQMNSLKPEDTAVYYCAARPYQKYNWASASYNVWGQGTQVTVSS
modifications: aTNF-a mu 3MUT
On to B4, for which, in series [16], the “thermal stability of the protein in E. coli cell extracts” value is “about 70 °C”.

B5: Conjugate 2 (anti-VEGF DARPin SEQ ID NO: 92 on hyaluronic acid, intermediate 1-7) (designed binder)
chain: GSDLDKKLLEAARAGQDDEVRILMANGADVNARDSTGWTPLHLAAPWGHPEIVEVLLKNGADVNAADFQGWTPLHLAAAVGHLEIVEVLLKYGADVNAQDKFGKTAFDISIDNGNEDLAEILQKAAGGGSGGGS
modifications: peptide bound through the organic linker MP2H to hyaluronic acid (830 kDa); site of attachment not stated
notes: Multivalent peptide-hyaluronic acid conjugate (MVP); peptide valency 117; Method 1 intermediate; also called DARPin MVP (Method 1)
For B5, the figures for the “Change in KD to t = 0” value in the series with Human VEGF 165 [17] and with Human VEGF 165 [18] were 1 fold and 17 fold, respectively. For the same molecule, the dissociation constant (Kd) with Human VEGF 165 [19] was 17 pM; with Human VEGF 165 [14], less than 1 pM; with Human VEGF 165 [20], less than 1 pM; with Human VEGF 165 [15], less than 1 pM.
